Read-outs that look alike come from different tables or passages of the source.

In experiment [1] the target is His6-MBP-PadeB1. As to the kind of experiment: fluorescence polarisation.
Experiment [2] concerns the target His6-MBP-PadeB1. As to the kind of experiment: fluorescence polarisation. The source holds these as a separate data set. Background: In fluorescence polarisation assays a small probe gives low polarisation when free and higher when bound to something large.

For orientation: Kd means the equilibrium constant for the complex coming apart. The low end stands for higher affinity, the high end for lower affinity. With “Fl-PadeA (PadeA labelled with fluorescein-5-maleimide) (peptide)”, the equilibrium dissociation constant (Kd) with His6-MBP-PadeB1 [1] came out at 69 nM.

What is called Ki is a measure of affinity in units of concentration, obtained from inhibition or displacement. Read a high Ki as lower affinity. As to PadeA variant Y–15A (peptide), the inhibitory constant (Ki) with His6-MBP-PadeB1 [2] was determined as 1180 nM.

In the experiment with His6-MBP-PadeB1 [2], PadeA variant A1G (peptide) had a Ki of 127 nM.

With PadeA variant P–12A (peptide), the Ki with His6-MBP-PadeB1 [2] amounted to 476 nM.

On to PadeA precursor peptide, wild type (WT), for which, in the experiment with His6-MBP-PadeB1 [2], the Ki amounted to 137 nM.

For the substance PadeA variant T–2A (peptide), the inhibitory constant (Ki) in the experiment with His6-MBP-PadeB1 [2] stood at 152 nM. The Ki values of the last two substances are within 1.5-fold of each other.

Consider PadeA(−19 to −7) peptide, for which the Ki with His6-MBP-PadeB1 [1] amounted to 119 nM; in the experiment with His6-MBP-PadeB1 [2], 120 nM.

For PadeA variant P–12A/Y–15A (peptide), the inhibitory constant (Ki) with His6-MBP-PadeB1 [2] amounted to 1340 nM.

The values are drawn from paper PMC6092944.
